Consider one protein from patent publication US7344852 (Takeda / Millennium, dated 2008).

This data set deals with the molecule itself. The data set is described as follows: X-ray crystal structure of apo DPPIV (self-association, homodimer). How it is done:
The structure of DPPIV was solved by a combination of heavy-atom derivatives and Seleno-Methionine (Se-Met) phasing in conjunction with non-crystallographic averaging. Heavy atom derivatives were obtained by soaking native DPPIV crystals in heavy atom solutions made using the crystallization solution. The concentration of heavy atom derivative and time of soaking varied between 0.5 mM to 10 mM and 1 to 15 days, respectively. An extensive array of heavy atom derivatives were individually soaked into DPPIV crystals and analyzed. Two heavy atom derivatives were used to determine the phases: di-m-iodobis (ethylene-diamine)-di-platinum (II) nitrate (PIP) and ethyl mercuric thiosalicylic acid sodium salt (EMTS). Data from crystals of apo DPPIV, Se-Met-DPPIV, PIP-DPPIV and EMTS-DPPIV were collected from cryocooled crystals (100K) at the Stanford Synchrotron Radiation Laboratory (SSRL) beam lines 9-1, 9-2 and 11-1 and the Advanced Light Source (ALS) beam lines 5.0.2 and 5.0.3 both using an ADSC Quantum CCD detector. […] Data were collected and integrated to 2.3 Å with MOSFLM (or HKL2000) and scaled with SCALA (or Scalepack) (CCP4 Study Weekend, Eds. Sawyer, L., Isaacs, N. & Bailey, S. 56-62, SERC Daresbury Laboratory, England, 1993).
Crystals were obtained after an extensive and broad screen of conditions, followed by optimization. […]

B1: recombinant human dipeptidyl peptidase IV (DPPIV), residues 39-766 of SEQ ID NO:1 with part of a gp67 signal sequence and a 6x-histidine tag (SEQ ID NO:3) (enzyme)
chain: ADPGGSHHHHHHSRKTYTLTDYLKNTYRLKLYSLRWISDHEYLYKQENNILVFNAEYGNSSVFLENSTFDEFGHSINDYSISPDGQFILLEYNYVKQWRHSYTASYDIYDLNKRQLITEERIPNNTQWVTWSPVGHKLAYVWNNDIYVKIEPNLPSYRITWTGKEDIIYNGITDWVYEEEVFSAYSALWWSPNGTFLAYAQFNDTEVPLIEYSFYSDESLQYPKTVRVPYPKAGAVNPTVKFFVVNTDSLSSVTNATSIQITAPASMLIGDHYLCDVTWATQERISLQWLRRIQNYSVMDICDYDESSGRWNCLVARQHIEMSTTGWVGRFRPSEPHFTLDGNSFYKIISNEEGYRHICYFQIDKKDCTFITKGTWEVIGIEALTSDYLYYISNEYKGMPGGRNLYKIQLSDYTKVTCLSCELNPERCQYYSVSFSKEAKYYQLRCSGPGLPLYTLHSSVNDKGLRVLEDNSALDKMLQNVQMPSKKLDFIILNETKFWYQMILPPHFDKSKKYPLLLDVYAGPCSQKADTVFRLNWATYLASTENIIVASFDGRGSGYQGDKIMHAINRRLGTFEVEDQIEAARQFSKMGFVDNKRIAIWGWSYGGYVTSMVLGSGSGVFKCGIAVAPVSRWEYYDSVYTERYMGLPTPEDNLDHYRNSTVMSRAENFKQVEYLLIHGTADDNVHFQQSAQISKALVDVGVDFQAMWYTDEDHGIASSTAHQHIYTHMSHFIKQCFSLP
modifications: glycosylated; four or five residues per chain carry covalently linked sugar molecules (NAG), positions not given
notes: Secreted from baculovirus-infected insect cells; crystallised as apo protein; The asymmetric unit holds four copies that form two dimers (A with B, C with D); also called DPP4; CD26
Consider B1, for which the binding result is on record as “binds”.
